The record followed here is patent US20260115256A1 (HANGZHOU SCIWIND BIOSCIENCES, published 2026).

First the molecules themselves.
T1: human amylin receptor (AMY3) on CHO-K1/Ga15/AMY3 cells (human, UniProt P30988 25-474; O60896 24-148)
T1 sequence (looked up) 1: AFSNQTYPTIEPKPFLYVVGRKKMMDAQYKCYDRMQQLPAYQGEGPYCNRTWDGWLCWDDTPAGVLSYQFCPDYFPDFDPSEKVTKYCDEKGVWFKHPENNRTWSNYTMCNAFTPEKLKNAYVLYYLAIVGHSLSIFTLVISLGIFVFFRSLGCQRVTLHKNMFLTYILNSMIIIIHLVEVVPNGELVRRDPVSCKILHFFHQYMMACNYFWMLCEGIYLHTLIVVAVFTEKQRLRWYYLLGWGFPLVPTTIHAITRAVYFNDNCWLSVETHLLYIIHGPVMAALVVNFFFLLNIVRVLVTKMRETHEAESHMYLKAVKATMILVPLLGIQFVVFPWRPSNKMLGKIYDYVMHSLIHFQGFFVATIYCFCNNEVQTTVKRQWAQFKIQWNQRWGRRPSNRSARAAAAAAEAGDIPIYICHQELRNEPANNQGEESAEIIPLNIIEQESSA
T1 sequence (looked up) 2: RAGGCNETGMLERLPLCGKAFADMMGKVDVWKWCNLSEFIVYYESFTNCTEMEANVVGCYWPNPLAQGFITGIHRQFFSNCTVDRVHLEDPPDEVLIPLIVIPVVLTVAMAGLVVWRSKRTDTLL

B1: PD053 (peptide)
peptide: CNTATCATQRLAEFLRHSSNNLK([γGlu-C20 diacid])PILPPTNVGSNTX-NH2
modifications: disulfide 1-6 (inferred); not fully specified (residue 36); printed as CNTATCATQRLAEFLRHSSNNLKPILPPTNVGSNT-trans-Hyp-NH2
B2: PD054 (peptide)
peptide: CNTATCATQRLADFLRHSSNNLK([γGlu-C20 diacid])PILPPTNVGSNTX-NH2
modifications: disulfide 1-6 (inferred); not fully specified (residue 36); printed as CNTATCATQRLADFLRHSSNNLKPILPPTNVGSNT-trans-Hyp-NH2

*1 amine or outer side, *2 acyl side, *3 side chain or, on linkers, in order; H or OH if unused. Bridges are numbered along the chain shown (N, C = ends). Primed or numbered codes have the meaning given here. Where no end group is shown, it is not given here. Side-chain parts run from the residue outwards. [ ]: non-standard residue; d: D form. The star is where a group is joined. C20 diacid = O=C(O)CCCCCCCCCCCCCCCCCCC(=O)*; γGlu = O=C(O)[C@H](CCC(=O)[*:2])N[*:1]; βAsp = O=C(O)[C@H](CC(=O)[*:2])N[*:1]; Hyp = O=C(O)[C@@H]1C[C@@H](O)CN1; Aad = N[C@@H](CCCC(=O)O)C(=O)O; αMeP = C[C@@]1(C(=O)O)CCCN1; Orn = NCCC[C@H](N)C(=O)O; Aze = O=C(O)[C@@H]1CCN1; Dab = NCC[C@H](N)C(=O)O; Inp′ = not defined here; Pip′ = not defined here; Dap = NC[C@H](N)C(=O)O; AEEA = NCCOCCOCC(=O)O

This assay addresses T1, human amylin receptor (AMY3) on …. Put plainly: cell-based or functional assay.
Consider RCNTATCATQRLAEFLRHSSNK([AEEA-AEEA-γGlu-C20 diacid])LGPILPPTNVGSNTP-NH2 (disulfide 2-7 (inferred)) [PD002], for which the “EC50, CRE-luciferase assay” value was 0.119 nM.
With RCNTATCATQRLAEFLRHSSNNLK([γGlu-C20 diacid])PILPPTNVGSNTP-NH2 (disulfide 2-7 (inferred)) [PD047], the “EC50, CRE-luciferase assay” value stood at 0.073 nM.
The value for RCNTATCATQRLA[Dap]FLRHSSNNLK([γGlu-C20 diacid])PILPPTNVGSNTP-NH2 (disulfide 2-7 (inferred)) [PD045] was 0.364 nM; that for {C20 diacid-βAsp-AEEA-AEEA}-KCNTATCATQRLADFLRHSSNNLKPILPPTNVGSNTP-NH2 (disulfide 2-7 (inferred)) [PD196] was 0.064 nM; that for CNTATCATQRLADFLRHSSNNLK([γGlu-C20 diacid])PILPPTNVGSNTP-NH2 (disulfide 1-6 (inferred)) [PD050] was 0.098 nM.
To RCNTATCATQRLADFLRHSSNNLK([γGlu-C20 diacid])PILPPTNVGSNT[Pip′]-NH2 (disulfide 2-7 (inferred)) [PD058] belongs 0.319 nM.
In the case of {C20 diacid-γGlu}-KGGGGRCNTATCATQRLADFLRHSSNNLRPILPPTNVGSNTP-NH2 (disulfide 7-12 (inferred)) [PD198], the “EC50, CRE-luciferase assay” value worked out at 0.029 nM.
On to RCNTATCATQRLADFLRHSSNNLK([γGlu-C20 diacid])PILPPTNVGSNTP-NH2 (disulfide 2-7 (inferred)) [PD048], for which the “EC50, CRE-luciferase assay” value was determined as 0.047 nM.
The value for {C20 diacid-βAsp-AEEA-AEEA}-KCNTATCATQRLADFLRHSSNNLKPILPPTNVGSNTP-NH2 (disulfide 2-7 (inferred)) [PD195] was 0.025 nM; that for RCNTATCATQRLAEFLRHSSNNLK([γGlu-C20 diacid])PILPPTNVGSNT[Aze]-NH2 (disulfide 2-7 (inferred)) [PD059] was 0.939 nM; that for RCNTATCATQRLA[Aad]FLRHSSNNLK([γGlu-C20 diacid])PILPPTNVGSNTP-NH2 (disulfide 2-7 (inferred)) [PD043] was 1.13 nM.
The value for {C20 diacid}-D[AEEA][AEEA]KCNTATCATQRLADFLRHSSNNLKPILPPTNVGSNTP-NH2 (disulfide 5-10 (inferred)) [PD193] was 0.074 nM; that for {C20 diacid-γGlu}-RCNTATCATQRLADFLRHSSNNLRPILPPTNVGSNTP-NH2 (disulfide 2-7 (inferred)) [PD197] was 0.025 nM.
The value for RCNTATCATQRLAEFL[Orn]HSSNNLK([γGlu-C20 diacid])PILPPTNVGSNTP-NH2 (disulfide 2-7 (inferred)) [PD046] was 1.68 nM; that for RCNTATCATQRLAEFLRHSSNNLK([γGlu-C20 diacid])PILPPTNVGSNT[Pip′]-NH2 (disulfide 2-7 (inferred)) [PD057] was 0.793 nM.
Take B1: the “EC50, CRE-luciferase assay” value was determined as 0.075 nM.
To RCNTATCATQRLAEFLRHSSNNLK([γGlu-C20 diacid])PILPPTNVGSNT[3‑Am‑Pro]-NH2 (disulfide 2-7 (inferred)) [PD061] belongs 0.815 nM; to RCNTATCATQRLAEFLRHSSNNK([AEEA-AEEA-γGlu-C20 diacid])GPILPPTNVGSNTP-NH2 (disulfide 2-7 (inferred)) [PD003], 0.14 nM.
To RCNTATCATQRLADFLRHSSNNLK([γGlu-C20 diacid])PILPPTNVGSNT[cis‑Hyp]-NH2 (disulfide 2-7 (inferred)) [PD056] belongs 0.586 nM; to {C20 diacid-γGlu}-KCNTATCATQRLADFLRHSSNNFGPILPPTNVGSNT[Hyp]-NH2 (disulfide 2-7 (inferred)) [PD067], 0.034 nM.
Consider RCNTATCATQRLAEFLRHSSNNLK([γGlu-C20 diacid])PILPPTNVGSNT[αMeP]-NH2 (disulfide 2-7 (inferred)) [PD063], for which the “EC50, CRE-luciferase assay” value stood at 0.101 nM.
The value for RCNTATCATQRLADFLRHSSNNLK([γGlu-C20 diacid])PILPPTNVGSNT[αMeP]-NH2 (disulfide 2-7 (inferred)) [PD064] was 0.055 nM.
To B2 belongs 0.049 nM; to {C20 diacid-AEEA-AEEA}-DKCNTATCATQRLADFLRHSSNNLKPILPPTNVGSNTP-NH2 (disulfide 3-8 (inferred)) [PD194], 0.074 nM; to CNTATCATQRLAEFLRHSSNNLK([γGlu-C20 diacid])PILPPTNVGSNTP-NH2 (disulfide 1-6 (inferred)) [PD049], 0.215 nM.
With K([γGlu-C20 diacid])CNTATCATQRLAEFLRHSSNNFGPILPPTNVGSNTP-NH2 (ends and bridges not checked) [PD066], the “EC50, CRE-luciferase assay” value amounted to 0.044 nM.
Turning to RCNTATCATQRLA[Dab]FLRHSSNNLK([γGlu-C20 diacid])PILPPTNVGSNTP-NH2 (disulfide 2-7 (inferred)) [PD044], the “EC50, CRE-luciferase assay” value turned out to be 2.62 nM.
On to {C20 diacid-AEEA-AEEA-Inp′}-KCNTATCATQRLADFLRHSSNNLKPILPPTNVGSNTP-NH2 (disulfide 2-7 (inferred)) [PD192], for which the “EC50, CRE-luciferase assay” value was 0.087 nM.
Regarding RCNTATCATQRLADFLRHSSNNLK([γGlu-C20 diacid])PILPPTNVGSNT[3‑Am‑Pro]-NH2 (disulfide 2-7 (inferred)) [PD062], the “EC50, CRE-luciferase assay” value came out at 0.374 nM.
On to K([γGlu-C20 diacid])CNTATCATQRLADFLRHSSNNFGPILPPTNVGSNT[Hyp]-NH2 (disulfide 2-7 (inferred)) [PD068], for which the “EC50, CRE-luciferase assay” value came out at 0.032 nM.
The value for RCNTATCATQRLAEFLRHSSNNLK([γGlu-C20 diacid])PILPPTNVGSNT[cis‑Hyp]-NH2 (disulfide 2-7 (inferred)) [PD055] was 0.909 nM; that for RCNTATCATQRLADFLRHSSNNLK([γGlu-C20 diacid])PILPPTNVGSNT[Aze]-NH2 (disulfide 2-7 (inferred)) [PD060] was 0.246 nM.
Turning to {C20 diacid-Inp′-AEEA-AEEA}-KCNTATCATQRLADFLRHSSNNLKPILPPTNVGSNTP-NH2 (disulfide 2-7 (inferred)) [PD191], the “EC50, CRE-luciferase assay” value is 0.061 nM.
